# Assay results taken from patent publication US11306156.
# What was measured:
# [1] = target: tissue factor (TF) antigen (UniProt P13726); test: SPR (ProteOn XPR36), His-tagged Fab captured on anti-penta His, TF as analyte, 1:1 fit
# [2] = target: tissue factor (TF) antigen (UniProt P13726); test: SPR, Fab captured on anti-penta His, TF injected, 1:1 fit
# [3] = target: tissue factor (TF) antigen (UniProt P13726); test: SPR, Fab captured on anti-penta-His, TF as analyte, 1:1 fit
# [4] = target: tissue factor (TF) antigen (UniProt P13726); test: SPR; reference wild-type D3H44 Fab
# [5] = target: tissue factor (TF) antigen (UniProt P13726); test: SPR (ProteOn), Fab captured on anti-penta-His surface, TF injected; reference wild-type D3H44 Fab
# [6] = target: tissue factor (TF) antigen (UniProt P13726); test: SPR (ProteOn), Fab captured on anti-penta-His surface, TF injected, 1:1 fit
# [7] = target: tissue factor (TF) antigen (UniProt P13726); test: SPR, Fab captured on anti-penta-His surface, TF as analyte, 1:1 fit; Fab batch C
# [8] = target: tissue factor (TF) antigen (UniProt P13726); test: SPR, Fab captured on anti-penta-His surface, TF as analyte, 1:1 fit; Fab batch C; against wild-type D3H44 Fab
# Chain of tissue factor (TF) antigen (P13726 33-251 limits assumed): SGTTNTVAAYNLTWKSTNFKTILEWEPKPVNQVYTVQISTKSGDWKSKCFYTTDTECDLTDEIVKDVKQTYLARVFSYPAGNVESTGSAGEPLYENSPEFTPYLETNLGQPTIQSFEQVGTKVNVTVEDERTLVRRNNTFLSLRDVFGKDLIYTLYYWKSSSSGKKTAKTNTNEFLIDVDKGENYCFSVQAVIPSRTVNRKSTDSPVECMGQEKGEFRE
Substance,Kd [2] [nM],Change in KD with respect to wild type (-(log(KD design) - log(KD wt))) [3],Kd [3] [nM],Change in KD with respect to wild type (-(log(KD design) - log(KD wt))) [4],Change in median values of KD of h1l1 Fab heterodimer compared to wild type (-(log(KD design)-log(KD wt))) [5],Kd [6] [nM],other results
"D3H44 Fab heterodimer, H1 A139C_C233S / L1 F116C_C214S (H1L1 Fab of LCCA Set # 9041)",–,–,–,–,–,–,Kd [1]: 0.14 nM
"D3H44 Fab heterodimer, H1 F122C_C233S / L1 S121C_C214S (H1L1 Fab of LCCA Set # 9043)",–,–,–,–,–,–,Kd [1]: 0.16 nM
"D3H44 Fab heterodimer, H1 P175C_C233S / L1 S162C_C214S (H1L1 Fab of LCCA Set # 9044)",–,–,–,–,–,–,Kd [1]: 0.18 nM
"D3H44 Fab heterodimer, H L124R_D146N_Q179K / L Q124E_V133G_S176D_T178E_T180E",0.2,-0.1,0.2,-0.1,–,–,–
"D3H44 Fab heterodimer, H L124R_Q179K / L Q124E_V133G_S176D_T178E_T180E",0.22,-0.15,0.22,-0.15,–,–,–
"D3H44 Fab heterodimer, H L124R_S186K / L Q124E_V133G_S176D_T178D_T180E",0.26,-0.23,0.26,-0.23,–,–,–
"D3H44 Fab heterodimer, H L124R_S186K / L V133G_S176D_T178D_T180E",0.18,-0.07,0.18,-0.07,–,–,–
"D3H44 Fab heterodimer, H L124R_S186K / L V133G_S176D_T178E_T180E",0.23,-0.17,0.23,-0.17,–,–,–
"D3H44 Fab heterodimer, H L124R_S186R / L Q124E_V133G_S176D_T178D_T180E",0.26,-0.21,0.26,-0.21,–,–,–
"D3H44 Fab heterodimer, H L124R_S186R / L V133G_S176D_T178D_T180E",0.17,-0.04,0.17,-0.04,–,–,–
D3H44 H1L1 Fab heterodimer of LCCA Set # 9185 (H1 L124E_L143D_K145M; L1 Q124K_V133G_S176R_T178R),–,–,–,–,0.09,0.13,–
D3H44 H1L1 Fab heterodimer of LCCA Set # 9270 (H1 L124E_L143E_K145M; L1 Q124K_V133G_S176R_T178R),–,–,–,–,-0.29,0.31,–
D3H44 H1L1 Fab heterodimer of LCCA Set # 9344 (H1 L124R_A125R; L1 V133G_S176D_T178D),–,–,–,–,-0.23,0.27,–
D3H44 H1L1 Fab heterodimer of LCCA Set # 9362 (H1 L124R_D146N_Q179K; L1 V133G_S176D_T178E_T180E),–,–,–,–,-0.01,0.16,–
D3H44 H1L1 Fab heterodimer of LCCA Set # 9538 (H1 L124R_S186R; L1 V133G_S176D_T178D_T180E),–,–,–,–,-0.04,0.17,–
D3H44 H1L1 Fab heterodimer of LCCA Set # 9644 (H1 L143E_K145T_Q179D_S188L; L1 Q124R_Q160K_T178R),–,–,–,–,–,–,"Kd [7]: 0.13 nM; change in median KD compared to wild type, -(log(KD design)-log(KD wt)) [8]: 0.09"
D3H44 H1L1 Fab heterodimer of LCCA Set # 9784 (H1 Q179K; L1 Q124E_T178E),–,–,–,–,–,–,"Kd [7]: 0.14 nM; change in median KD compared to wild type, -(log(KD design)-log(KD wt)) [8]: 0.05"
"D3H44 H1L1 Fab heterodimer of LCCA Sets # 9176, 9178 and 9179 (H1 L124E_L143D_K145M; L1 Q124K_V133G_S176R_T178K)",–,–,–,–,-0.15,0.22,–
"D3H44 H1L1 Fab heterodimer of LCCA Sets # 9237, 9236, 9234, 9239, 9243 and 9240 (H1 L124E_L143D_K145T; L1 V133G_S176R_T178K)",–,–,–,–,-0.15,0.22,–
